Broadly, the Kd is the free concentration of one partner at which half of the binding sites on the other are occupied at equilibrium, for simple one-to-one binding. A low value points to tighter binding.

The values below come from publication doi:10.1101/869909.

In the experiment the target is HSP27 ACD domain (α-crystallin domain), monomeric (human). Kind of experiment: ITC. (In general: In ITC the heat of successive injections is recorded.)
Chain of HSP27 ACD domain (α-crystallin domain), monomeric (human) (P04792 76-184): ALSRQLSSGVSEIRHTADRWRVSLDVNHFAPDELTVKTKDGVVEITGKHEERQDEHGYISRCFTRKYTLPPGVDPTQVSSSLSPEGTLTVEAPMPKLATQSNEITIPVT

B1: HSP27 IXI peptide 178-…-186 (F185H), without biotin (peptide)
peptide: EITIPVTHE
As for B1, the dissociation constant Kd was 14.3 µM.
